The values below come from publication PMC5405427.

The target of data set [1] is T1, IBV nsp9 wild-type (avian infectious bronchitis virus (IBV) …, UniProt P0C6Y3 3675-3785).
T1 sequence: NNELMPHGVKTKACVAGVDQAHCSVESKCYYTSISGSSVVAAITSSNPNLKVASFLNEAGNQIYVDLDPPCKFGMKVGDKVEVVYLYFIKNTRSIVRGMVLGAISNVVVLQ
Kind of data set: zone-interference gel electrophoresis.

The target in data set [2] is T1, IBV nsp9 wild-type. The data set can be described thus: BLI. A general note: In BLI a coated tip is dipped into the sample, and binding shifts an interference pattern.

B1: 20-mer ssDNA (ssDNA)
DNA: CGACTCATGGACCTTGGCAG
On to B1, for which, in the data set with IBV nsp9 wild-type [1], the binding result is reported as “binds”.

B2: 20-mer RNA, biotin (BLI) (ssRNA)
RNA: CGACUCAUGGACCUUGGCAG
modifications: phosphorothioate linkages at last two 3' residues (A19, G20)
As for B2, the Kd in the data set with IBV nsp9 wild-type [2] came out at 28 µM.

By Kd is commonly meant a measure of binding affinity in units of concentration. A lower Kd goes with a tighter complex.
